Where no end group is shown, it is not given here.
T1: PEM peptide (human)
T1 peptide: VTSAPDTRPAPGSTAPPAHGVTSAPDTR

T2: mimetope peptide 7E11-9.5 (not fully specified)
T2 peptide: LYANPGMYSRLHSPA


Molecular target: T1, PEM peptide
Assay: phage panning on PEM peptide, DC43 library, eluted with excess PEM peptide
Experimental: (§1) A peptide comprising this sequence was synthesized and used to isolate abtides from TSAR peptide libraries by methods analogous to those described above. In these experiments, the specific TSAR libraries used were R26, D38 and DC43. See FIGS. 10-12 for description of these libraries. Phage bound to PEM were eluted by either standard acid elution methods, stringent acid elution methods where phage were incubated with the PEM peptide for only 10 minutes prior to washing and elution, or were eluted using excess PEM peptide. Phage from each library were isolated that express peptides capable of binding to PEM.

Row | Binder | binding result
1 | GAPVWRGNPRWRGPGGFKWPGCGNGPMCNTFTPARGGSRNNGP (eluted with excess PEM peptide; also called MPI; PEM abtide MP-1) [MP-1] | binds
2 | GSASSCFPNFTARGVTVGFFGCGSPAHPAAPRVLNPATDFPAP (eluted with excess PEM peptide) [MP-2] | binds
3 | VFRRTARSSRPIGATVFPWYGCGNSNDETLPHHDSPPSFFLGA (eluted with excess PEM peptide) [MP-22] | binds
4 | NTCWTDLFWHGLPGGDLPRDGCGLPSELTTHPSRERRDASEN [MA-13] | binds

Molecular target: T1, PEM peptide
Assay: phage panning on PEM peptide, R26 library, acid eluted
Experimental: as §1

Row | Binder | binding result
5 | SFMDYFFHTPEPKPAGYPNAYTDPKHPA (acid eluted) [A15] | binds
6 | SSSIFDYAPFSWGSAGLSNSSINVFERS (acid eluted) [A54] | binds
7 | SLGLPWIDVFGRSSAEPWPFGRTNLPRS (acid eluted) [A39] | binds
8 | SVHGAFLDSFFPWAADGPHGRGRLTSF (acid eluted) [A16] | binds

Molecular target: T2, mimetope peptide 7E11-9.5
Assay: phage panning of TSAR-9 library on plate-bound 7E11-9.5 peptide
Experimental: Next, the mimetope peptide was used to isolate abtides from a peptide library. Fifty to one hundred microliters of the solution of this peptide was used to coat the wells of a 96-well plate, the wells were blocked with 0.5% BSA in PBS, and the wells were used for screening. An aliquot of the TSAR-9 random phage library (containing approximately 3×10¹⁰ phage particles) was used as in the initial screening, and 4 rounds of screening were performed. After the first two rounds, the phage were amplified. Two more rounds of screening were then performed. By this procedure, phage from the TSAR-9 library that expressed peptides capable of binding to the 7E11-9.5 mimetope peptide were identified and isolated. The peptides containing the binding domains of these phage are abtides and were discovered to mimic the binding specificities of monoclonal antibody 7E11-C5. These abtides are termed “7E11-C5 abtides.”

Row | Binder | binding result
9 | RCSPIWGISYPFGLLSSNPGVCHSSDAETNIRNDILTT [7E11-C5 abtide clone 13] | binds
10 | GHSNYCFVSTLGMPIVGFPSINARGLIHYGGSDPRLAA [7E11-C5 abtide clone 16] | binds

Molecular target: T1, PEM peptide
Assay: phage ELISA on PEM

Row | Binder | binding result
11 | GEPVWCRHSGGRVQGGLDWLGCGDGPLRYTVTPARGGPSKHGP [E64] | binds
12 | GLSLVRGDSWGSGAGGWKRHGCGHGPMYNPQTPARGGSCTRNT [E66] | binds
13 | VSRAWSGKPRLMGSHGLNCPGCGKGHSGIMFIPDPAGSANTPP [E67] | binds
14 | CAPMWSGKPPWCVGGGVKFRGCGNRPDCNIITPRLVESRDKAL [E68] | binds
15 | ADPVCSRKPDGGGLRGLRWPGCGKGPILYNVTAARGGSRNNGP [E70] | binds
16 | GTRVPPGFALRGGRDGLSWAGCGKAPISKTYTSARGRSRKKGS [E3] | no binding
17 | GQPECRITSGCCGTDGNKWLGCGKVDMCNTLNPAVGCHGTNGS [E34] | no binding
18 | RSAVSEGKPREIVPGGCMWPGCGNGRKSNTLTHGPEQFQEIEP [E15] | no binding
19 | SSGVGNGKPRSWAPDALNGGCGNIQFANTITPDRGGSCNQTL [E24] | no binding
20 | GSSVCGGQPSGRGFGGLPGPGCGNGPTSNTLTSARGGFPNKGL [E27] | no binding
21 | GAPLWQGDPADEVLGGSMIPGCGIGALSQTFTPTPGGSRKNVT [E37] | no binding
22 | AGRELRQDEGEGGAGADVARLREGPICSTFTPARGGSCPSGL [E43] | no binding
23 | QARVSMAISCRSGPSDLMHQGCGYGPRCNPDTTDSGGSHTNTP [E49] | no binding
24 | GDPECRGKPRGRWTGSLACTGCGNGPNSKICTRARGVSRNKGP [E60] | no binding
25 | STPGCSGYSGSGDPRCLTCTACGNGHTRKTLTPAHGRSTHKEP [E72] | no binding

Molecular target: T1, PEM peptide
Assay: phage panning on PEM peptide, D38 library, acid eluted
Experimental: as §1

Row | Binder | binding result
26 | DQIGSRPQTTSRSISGSWWENAKTLWQQDYAFSAPNAA (acid eluted) [MA-32] | binds
27 | LSDAWGNFTTSYRDSAGFPSHAMTTSQGGKRNHASRFP (acid eluted) [V23] | binds
28 | VQLDDTSPRASGQETSQSEYDARPLLSKFAIPRPWSR (acid eluted) [V21] | binds
29 | IDSSKNRISGTGYLSFPHIRHANRRHMADDSNLAPGPS (acid eluted) [V1] | binds

Molecular target: T1, PEM peptide
Assay: phage panning on PEM peptide, R26 library, eluted with excess PEM peptide
Experimental: as §1

Row | Binder | binding result
30 | ILGWPFLTGLGDSTVHPRGRKGTDPS (eluted with excess PEM peptide) [P24] | binds
31 | SIPSFSMWLNQLGSAALPSKGNSQDRSD (eluted with excess PEM peptide) [P49] | binds
32 | SRDDIFTGGPLVLFRGSKTSNHDVHSMR (eluted with excess PEM peptide) [P26] | binds
33 | RAELVNWYEWFHVTAEAETPVINSHNMT (eluted with excess PEM peptide) [P6] | binds

Molecular target: T1, PEM peptide
Assay: phage panning on PEM peptide, DC43 library, stringent acid elution
Experimental: as §1

Row | Binder | binding result
34 | WSIGTHTGPEGKFRIPCDRSGCGGTTLTHGGLNSSPTGQHERP (stringent acid elution) [V44] | binds
35 | DPCEDGYWLSSVGRAGASIRGCGAIRRSSRTLTAEYSTRASNH (stringent acid elution) [V39] | binds
36 | GSKRSCWGTTISNYFRPVPEGCGSASSINPNTNTGRLPSLHRQ (stringent acid elution) [V10] | binds
37 | SSASSGCLGRAEHLDLDSVWGCGSQADMSRRYSPWYGRPRTGV (stringent acid elution) [V7] | binds
38 | NVMWSSSKAGIRDCSQVPPGGCGPVNRHRASPPLTPFRHGSIR (stringent acid elution) [V4] | binds

Molecular target: T1, PEM peptide
Assay: phage panning on PEM peptide, D38 library, stringent acid elution
Experimental: as §1

Row | Binder | binding result
39 | PLTSGSSSEYRNRDDCPVYKYATNCPRLNFSPSRYSPF (stringent acid elution) [V45] | binds
40 | GDAYGGIFSRPRQGLADSYIHASYTGKHFFRGPRPPTR (stringent acid elution) [V32] | binds
41 | STCIGAEGEWKSFHNFLQCRDATSTSSSTLDPTALRFG (stringent acid elution) [V27] | binds
42 | YSATLWDQFGSRQVELWSNRHASSALPFASRASVLGSR (stringent acid elution) [V40] | binds

From US20040229289A1, “Antigen binding peptides (abtides) from peptide libraries” (Cytogen Corporation, priority 1994, published 2004)
